The values below come from patent US20220332848A1 (published 2022).

For orientation: EC50 means the concentration that produces a half-maximal response.

B1: bispecific antibody CTLA4-E-HN (bispecific antibody)
heavy: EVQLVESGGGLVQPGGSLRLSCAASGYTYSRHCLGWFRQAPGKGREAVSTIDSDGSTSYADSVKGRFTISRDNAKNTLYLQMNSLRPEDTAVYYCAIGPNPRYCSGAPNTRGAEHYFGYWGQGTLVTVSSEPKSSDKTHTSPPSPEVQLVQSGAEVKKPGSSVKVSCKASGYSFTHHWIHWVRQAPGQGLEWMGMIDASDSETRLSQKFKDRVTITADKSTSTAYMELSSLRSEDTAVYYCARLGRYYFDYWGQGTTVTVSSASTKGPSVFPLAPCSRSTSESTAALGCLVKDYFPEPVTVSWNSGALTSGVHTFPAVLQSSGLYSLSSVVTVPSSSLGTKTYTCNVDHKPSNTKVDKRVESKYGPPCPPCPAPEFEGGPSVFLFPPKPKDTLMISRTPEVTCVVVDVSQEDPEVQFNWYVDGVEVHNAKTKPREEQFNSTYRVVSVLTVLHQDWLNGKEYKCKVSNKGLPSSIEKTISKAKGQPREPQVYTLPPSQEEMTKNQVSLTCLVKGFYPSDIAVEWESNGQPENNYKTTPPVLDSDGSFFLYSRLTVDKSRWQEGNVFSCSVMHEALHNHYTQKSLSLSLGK
light: EIVLTQSPATLSLSPGERATLSCRASENVGTYISWYQQKPGQAPRLLIYGASNRYTGIPARFSGSGSGTDFTLTISSLEPEDFAVYYCGESYGHLYTFGGGTKVEIKRTVAAPSVFIFPPSDEQLKSGTASVVCLLNNFYPREAKVQWKVDNALQSGNSQESVTEQDSKDSTYSLSSTLTLSKADYEKHKVYACEVTHQGLSSPVTKSFNRGEC
B2: bispecific antibody CTLA4-E-HC (bispecific antibody)
heavy: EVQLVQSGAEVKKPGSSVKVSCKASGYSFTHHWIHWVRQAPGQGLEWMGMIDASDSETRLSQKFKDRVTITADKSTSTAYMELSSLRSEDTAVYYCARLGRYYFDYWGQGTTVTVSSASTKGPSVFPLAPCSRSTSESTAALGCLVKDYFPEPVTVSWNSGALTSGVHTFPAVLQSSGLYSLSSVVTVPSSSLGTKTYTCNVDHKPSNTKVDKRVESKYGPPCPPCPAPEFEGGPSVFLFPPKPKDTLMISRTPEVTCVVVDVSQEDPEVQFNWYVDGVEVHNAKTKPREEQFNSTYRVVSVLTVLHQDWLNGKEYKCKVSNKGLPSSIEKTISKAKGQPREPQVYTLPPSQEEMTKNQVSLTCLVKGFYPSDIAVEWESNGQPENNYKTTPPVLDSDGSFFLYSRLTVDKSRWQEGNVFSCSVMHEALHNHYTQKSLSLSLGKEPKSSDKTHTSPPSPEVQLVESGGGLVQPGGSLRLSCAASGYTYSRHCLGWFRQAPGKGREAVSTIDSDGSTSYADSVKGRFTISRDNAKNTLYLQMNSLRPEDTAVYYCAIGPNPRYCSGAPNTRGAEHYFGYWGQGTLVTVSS
light: B1 light
B3: bispecific antibody CTLA4-G15-HN (bispecific antibody)
heavy: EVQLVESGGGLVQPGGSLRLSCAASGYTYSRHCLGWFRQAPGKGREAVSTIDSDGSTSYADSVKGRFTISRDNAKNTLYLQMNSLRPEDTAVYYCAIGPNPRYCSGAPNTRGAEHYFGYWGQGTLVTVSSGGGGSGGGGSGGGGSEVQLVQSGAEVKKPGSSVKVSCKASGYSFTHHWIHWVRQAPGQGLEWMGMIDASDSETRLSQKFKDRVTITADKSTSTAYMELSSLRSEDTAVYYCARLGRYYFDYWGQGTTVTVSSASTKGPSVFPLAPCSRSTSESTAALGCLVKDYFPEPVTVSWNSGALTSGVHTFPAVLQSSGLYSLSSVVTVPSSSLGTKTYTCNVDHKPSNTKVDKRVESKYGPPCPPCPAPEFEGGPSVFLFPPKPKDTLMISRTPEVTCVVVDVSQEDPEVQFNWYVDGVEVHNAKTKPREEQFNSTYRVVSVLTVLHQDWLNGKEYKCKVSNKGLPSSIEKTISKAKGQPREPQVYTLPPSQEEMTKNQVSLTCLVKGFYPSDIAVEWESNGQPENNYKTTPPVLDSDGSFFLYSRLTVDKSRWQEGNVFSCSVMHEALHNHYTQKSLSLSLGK
light: B1 light
B4: bispecific antibody CTLA4-G15-HC (bispecific antibody)
heavy: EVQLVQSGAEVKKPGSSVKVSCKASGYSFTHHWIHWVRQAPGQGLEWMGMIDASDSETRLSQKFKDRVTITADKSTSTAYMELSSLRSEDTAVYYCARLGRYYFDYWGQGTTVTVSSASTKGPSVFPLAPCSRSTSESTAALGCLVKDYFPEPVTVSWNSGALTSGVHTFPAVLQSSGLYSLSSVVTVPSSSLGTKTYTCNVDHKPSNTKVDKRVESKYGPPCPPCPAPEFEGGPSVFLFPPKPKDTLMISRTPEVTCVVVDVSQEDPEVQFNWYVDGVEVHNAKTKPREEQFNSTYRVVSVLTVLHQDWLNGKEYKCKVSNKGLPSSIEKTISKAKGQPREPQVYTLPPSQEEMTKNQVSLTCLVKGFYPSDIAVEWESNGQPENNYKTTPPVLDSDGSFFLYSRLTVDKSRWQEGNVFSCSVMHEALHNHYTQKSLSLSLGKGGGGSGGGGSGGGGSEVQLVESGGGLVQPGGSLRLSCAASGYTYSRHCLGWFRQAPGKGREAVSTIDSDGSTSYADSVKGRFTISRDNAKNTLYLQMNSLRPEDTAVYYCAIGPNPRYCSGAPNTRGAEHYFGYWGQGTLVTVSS
light: B1 light
B5: anti-CD47 monoclonal antibody (mAb) (antibody, V domains shown)
VH: EVQLVQSGAEVKKPGSSVKVSCKASGYSFTHHWIHWVRQAPGQGLEWMGMIDASDSETRLSQKFKDRVTITADKSTSTAYMELSSLRSEDTAVYYCARLGRYYFDYWGQGTTVTVSS
VL: EIVLTQSPATLSLSPGERATLSCRASENVGTYISWYQQKPGQAPRLLIYGASNRYTGIPARFSGSGSGTDFTLTISSLEPEDFAVYYCGESYGHLYTFGGGTKVEIKR
B6: bispecific antibody CTLA4-G9-LN (bispecific antibody)
light: EVQLVESGGGLVQPGGSLRLSCAASGYTYSRHCLGWFRQAPGKGREAVSTIDSDGSTSYADSVKGRFTISRDNAKNTLYLQMNSLRPEDTAVYYCAIGPNPRYCSGAPNTRGAEHYFGYWGQGTLVTVSSGGGGSGGGSEIVLTQSPATLSLSPGERATLSCRASENVGTYISWYQQKPGQAPRLLIYGASNRYTGIPARFSGSGSGTDFTLTISSLEPEDFAVYYCGESYGHLYTFGGGTKVEIKRTVAAPSVFIFPPSDEQLKSGTASVVCLLNNFYPREAKVQWKVDNALQSGNSQESVTEQDSKDSTYSLSSTLTLSKADYEKHKVYACEVTHQGLSSPVTKSFNRGEC
heavy: not shown

For one assay, the target named is CD47 (UniProt Q08722 19-323). Nature of the assay: FACS. (In general: A flow cytometer gives signals particle by particle.)
CD47, sequence (Q08722 19-323): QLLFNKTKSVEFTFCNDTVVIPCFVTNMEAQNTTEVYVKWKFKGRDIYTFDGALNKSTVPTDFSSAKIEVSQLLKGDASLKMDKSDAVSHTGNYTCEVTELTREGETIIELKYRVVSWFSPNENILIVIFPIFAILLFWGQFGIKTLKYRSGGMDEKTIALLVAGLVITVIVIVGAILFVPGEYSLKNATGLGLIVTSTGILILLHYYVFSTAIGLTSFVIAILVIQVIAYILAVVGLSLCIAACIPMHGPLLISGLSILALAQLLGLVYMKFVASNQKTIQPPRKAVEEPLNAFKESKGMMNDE
B1 registered a concentration giving a half-maximal response (EC50) of 2.3 nM.

Take B2: it took 1.57 nM to reach a half-maximal effect (EC50).

As to B3, a half-maximal effect (EC50) was put at 1.81 nM.

In turn, B4 showed an EC50 of 1.63 nM.

B5 had an EC50 of 0.905 nM.

Another assay deals with human CTLA-4 (human, UniProt P16410 36-223). The assay can be described thus: FACS binding CHO-K1 cells expressing human CTLA-4.
human CTLA-4, sequence (P16410 36-223): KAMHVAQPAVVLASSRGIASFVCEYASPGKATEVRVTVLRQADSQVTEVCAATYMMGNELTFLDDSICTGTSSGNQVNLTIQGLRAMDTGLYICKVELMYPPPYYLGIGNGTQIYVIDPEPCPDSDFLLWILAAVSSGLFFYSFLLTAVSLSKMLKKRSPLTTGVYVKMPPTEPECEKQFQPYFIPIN
The molecule B1 displayed an EC50 of 3.61 nM.

The molecule B2 registered an EC50 of 7.05 nM.

The molecule B3 came in with an EC50 of 2.93 nM.

The molecule B4 had an EC50 of 6.22 nM.

In turn, B5 yielded an EC50 of approximately 3.2 nM.

B6 registered an EC50 of 3.59 nM.
